According to patent publication US10654893B2, “Self-assembling peptide compositions” (3-D MATRIX, LTD., priority 2014, dated 2020):

Assays:
[1] = tested on: C57 BL/6 Mouse Mesenchymal Stem Cells (mMSCs); test: Cell viability (cytotoxicity) assay; format: cell-based
Experimental: A cell viability (cytotoxicity) assay was performed to measure the viability of C57 BL/6 Mouse Mesenchymal Stem Cells (mMSCs) with IEIK13 (SEQ ID NO:3), KLD12 (SEQ ID NO:2) and RADA16 (SEQ ID NO:1) compositions as described herein. mMSCs are a frequently used cell line in hydrogel tissue culture systems. […] The final concentration of sucrose was 10%. Cells were washed and re-suspended in 10% sucrose to a final concentration of 5 million cells/ml. Cells were centrifuged and the supernatant was removed. The cells were re-suspended in peptide compositions with 10% sucrose. The protocol was then followed for plating drop cultures and subsequent isolation as described in the PuraMatrix® Guidelines for Use (BD/Corning website). Results are shown in FIGS. 14-16 for RADA16 (SEQ ID NO:1), IEIK13 (SEQ ID NO:3), and KLD12 (SEQ ID NO:2), respectively.

[2] = Rheological properties before and after DMEM treatment; format: physicochemical
Experimental: Effects of Dulbecco's modified Eagle's medium (DMEM) (pH 7.4) on rheological properties of IEIK13 (SEQ ID NO:3), KLD12 (SEQ ID NO:2), and RADA16 (SEQ ID NO:1) compositions were evaluated using a rheometer (AR500, TA Instruments) with 40 mm plates. DMEM is a cell culture medium that contains 6.4 g/L of NaCl, 3.4 g/L NaHCO3 (sodium bicarbonate), minor amounts of other salts, various amino acids, and 4.5 g/L of glucose. The pH of DMEM is 7.2±0.2 and the osmolality is 335±30 mOsm/Kg H2O. DMEM is close to human physiological fluids, for example, blood.
Before being mixed with the DMEM solution, 1% peptide compositions were kept in 4° C. for at least 48 hours. To perform experiments, 1 mL of peptide composition was gently pipetted and placed on the plate of the rheometer. 2 mL of the DMEM solution was gently added around the peptide composition. The peptide composition was treated with the DMEM for two minutes, then medium was removed, and the plates were placed at a measuring geometry gap at around 450 μm. Measurements were performed at 37° C. after 2 min of relaxation. Frequency tests were performed from 1 rad/s to 100 rad/s at 1 Pa of oscillation stress.
Using a DHR-1 rheometer (TA Instruments), rheological properties of peptide compositions at selected concentrations were measured before and after the DMEM treatment. Frequency sweep tests were performed from 1 rad/sec to 10 rad/sec at 1 Pa and the storage moduli in the graphs were at 1 rad/sec. […] Results are shown in FIGS. 22A and 22B for RADA16 (SEQ ID NO:1) and FIGS. 23A and 23B for IEIK13 (SEQ ID NO:3), respectively.
Using a DHR-1 rheometer (TA Instruments), rheological properties of peptide compositions at selected ion strengths were evaluated 10 mins after the DMEM treatment. Frequency sweep tests were performed from 1 rad/sec to 10 rad/sec at 1 Pa and the storage modulus at 1 rad/sec was selected for data. […] At 0.9 M or higher ionic strengths of NaCl, RADA16 (SEQ ID NO:1) compositions became cloudy.

[3] = Compositions with 0.9% NaCl at pH 3.4 (combined salt and pH); format: physicochemical
Experimental: IEIK13 (SEQ ID NO:3), KLD12 (SEQ ID NO:2), and RADA16 (SEQ ID NO:1) were dissolved in salt buffer (e.g. NaCl) and kept at elevated pH level adjusted with alkali salt buffer (e.g. NaOH). The compositions had their pH levels about 2.5-4.0 and lower ionic strength than their critical points. With respect to RADA16 (SEQ ID NO:1), KLD12 (SEQ ID NO:2) and IEIK13 (SEQ ID NO:3), peptide compositions were still clear with 0.9% NaCl (i.e. ionic strength of 0.15 M) at pH 3.4 (adjusted with NaOH). Rheological properties of RADA16 (SEQ ID NO:1) with 0.9% NaCl at pH 3.4 were stiffer than those of RADA16 control (i.e. no ionic strength and pH elevation) and RADA16 (SEQ ID NO:1) with 0.9% NaCl (no pH elevation).

[4] = pH adjustment with 0.1 N NaOH, pH and visual observation; format: physicochemical; conditions: for Appearance of composition: 2.5%
Experimental: In this Example, pH levels of peptide compositions was adjusted, for example, by addition of 0.1 N NaOH to 2 mL of a 2.5% peptide composition. pH and appearance of the adjusted compositions were observed. An acidic salt was added if the pH level was higher than the desired level.
With certain compositions, when pH levels of peptide compositions were higher than 3.5 (RADA16 (SEQ ID NO:1) and KLD12 (SEQ ID NO:2)) or 3.7 (IEIK13 (SEQ ID NO:3)), the peptide compositions began phase separation (i.e. becoming cloudy). In some embodiments, provided peptide compositions have a pH within the range of about 3.0 to about 3.7 (particularly for IEIK13 (SEQ ID NO:3)), or about 3.0 to about 3.5 (particularly for RADA16 (SEQ ID NO:1) and/or KLD12 (SEQ ID NO:2)).

## Arg-Ala-Asp-Ala-Arg-Ala-Asp-Ala-Arg-Ala-Asp-Ala-Arg-Ala-Asp-Ala [RADA16]
[1]
  Cell viability at 0.5% versus 0.25%: significantly higher than that at 0.25%
[2]; 0.9 M or higher ionic strengths of NaCl
  Appearance of composition: became cloudy
[2]; 10 mins after DMEM treatment, NaCl, decreased with 0.7 M or higher
  Rheological properties as a function of ionic strength after DMEM treatment: increased with ionic strength adjustment up to 0.7 M
[2]; selected NaCl ionic strengths, RADA16 statement follows 0.9 M or higher NaCl (no gelation)
  Change of rheological properties with DMEM treatment: did not change with the DMEM treatment
[2]; selected concentrations, storage moduli at 1 rad/sec, 1 Pa
  Rheological properties with DMEM treatment and/or pH elevation: increased with the DMEM treatment and/or pH elevation
[3]; 0.9% NaCl (ionic strength of 0.15 M) at pH 3.4 (adjusted with NaOH)
  Appearance of composition: still clear
[3]; 0.9% NaCl at pH 3.4, 2.5% (FIG. 40)
  Stiffness versus control and versus 0.9% NaCl without pH elevation: stiffer
[4]; 0.1N NaOH 0 μL/mL, Conc. 2.5%, pH 2.2 (RADA16), 1.8 (IEIK13), 2.1 (KLD12)
  Observation: Clear, thick gel
[4]; 0.1N NaOH 50 μL/mL, Conc. 2.38%, pH 2.3 (RADA16), 2.1 (IEIK13), 2.4 (KLD12)
  Observation: Clear, thick gel
[4]; 0.1N NaOH 100 μL/mL, Conc. 2.27%, pH 2.4 (RADA16), 2.2 (IEIK13), 2.6 (KLD12)
  Observation: Clear, thick gel
[4]; 0.1N NaOH 150 μL/mL, Conc. 2.17%, pH 2.7 (RADA16), 2.7 (IEIK13), 2.9 (KLD12)
  Observation: Clear, thick, stiffer gel
[4]; 0.1N NaOH 200 μL/mL, Conc. 2.08%, pH 2.9 (RADA16), 3.0 (IEIK13), 3.3 (KLD12)
  Observation: Clear, thick, stiffer gel
[4]; 0.1N NaOH 250 μL/mL, Conc. 2.0%, pH 3.2 (RADA16), 3.3 (IEIK13), 4.0 (KLD12)
  Observation: Clear, thick, stiffer gel
[4]; 0.1N NaOH 275 μL/mL, Conc. 1.96%, pH 3.4 (RADA16), 3.7 (IEIK13)
  Observation: Clear, thick, stiffer gel
[4]; 0.1N NaOH 300 μL/mL, Conc. 1.92%, pH 3.6 (RADA16), 4.0 (IEIK13), 4.7 (KLD12)
  Observation: Slightly cloudy, brittle gel
[4]; 0.1N NaOH 350 μL/mL, Conc. 1.85%, pH 4.5 (RADA16), 4.5 (IEIK13), 5.2 (KLD12)
  Observation: Cloudy, phase-separated
[4]; 0.1N NaOH added in 2.5% composition 0 μL/mL, Conc. 2.5%
  Peptide composition pH: 2.2
[4]; 0.1N NaOH added in 2.5% composition 50 μL/mL, Conc. 2.38%
  Peptide composition pH: 2.3
[4]; 0.1N NaOH added in 2.5% composition 100 μL/mL, Conc. 2.27%
  Peptide composition pH: 2.4
[4]; 0.1N NaOH added in 2.5% composition 150 μL/mL, Conc. 2.17%
  Peptide composition pH: 2.7
[4]; 0.1N NaOH added in 2.5% composition 200 μL/mL, Conc. 2.08%
  Peptide composition pH: 2.9
[4]; 0.1N NaOH added in 2.5% composition 250 μL/mL, Conc. 2.0%
  Peptide composition pH: 3.2
[4]; 0.1N NaOH added in 2.5% composition 275 μL/mL, Conc. 1.96%
  Peptide composition pH: 3.4
[4]; 0.1N NaOH added in 2.5% composition 300 μL/mL, Conc. 1.92%
  Peptide composition pH: 3.6
[4]; 0.1N NaOH added in 2.5% composition 350 μL/mL, Conc. 1.85%
  Peptide composition pH: 4.5
[4]; pH about 3.5 (FIG. 12)
  Appearance of composition: clear
[4]; pH=3.6 (FIG. 12)
  Appearance of composition: slightly cloudy
[4]; pH=4.0 (FIG. 12)
  Appearance of composition: precipitated
[4]; pH 7.0, NaOH volume and conc. not given
  Observation: Cloudy, phase-separated
